The target in this assay is soluble human myeloproliferative leukemia (MPL) receptor (human) (UniProt P40238). The assay can be described thus: BIAcore competition: test protein preincubated with 5 nM MPL receptor, passed over Fc-TMP on protein G chip. More on the design: unit not given here. (Surface plasmon resonance follows binding to a sensor surface in real time, without labels.)
UniProt P40238, sequence (P40238 26-491 limits assumed): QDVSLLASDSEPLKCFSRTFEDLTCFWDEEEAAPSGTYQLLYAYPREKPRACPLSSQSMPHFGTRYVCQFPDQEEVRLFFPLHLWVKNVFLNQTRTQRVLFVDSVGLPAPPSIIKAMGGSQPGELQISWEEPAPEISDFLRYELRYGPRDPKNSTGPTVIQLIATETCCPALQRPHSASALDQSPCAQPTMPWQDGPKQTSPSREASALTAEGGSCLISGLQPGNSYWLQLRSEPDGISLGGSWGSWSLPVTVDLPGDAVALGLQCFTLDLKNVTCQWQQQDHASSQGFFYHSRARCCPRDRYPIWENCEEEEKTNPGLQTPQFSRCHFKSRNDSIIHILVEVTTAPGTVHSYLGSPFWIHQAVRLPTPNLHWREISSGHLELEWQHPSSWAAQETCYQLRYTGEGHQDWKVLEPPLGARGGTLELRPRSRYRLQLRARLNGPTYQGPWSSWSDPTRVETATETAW

Substance “TMP sequence fused to the carboxy-terminus of human immunoglobulin Fc (Fc-TMP) (Fc fusion)” gave an affinity of 3.28 to 5.37.

(Values after patent publication US20030195154A1.)
